Laboratory results reported in patent US20230129812A1, “COMPOSITIONS AND METHODS FOR TREATING PULMONARY HYPERTENSION” (Acceleron Pharma Inc., priority 2020, published 2023).
Where a chain is given by its changes, count along the chain named. Names may count otherwise.

T1: GDF11 (Homo sapiens, UniProt O95390)
T1 sequence (O95390 299-407): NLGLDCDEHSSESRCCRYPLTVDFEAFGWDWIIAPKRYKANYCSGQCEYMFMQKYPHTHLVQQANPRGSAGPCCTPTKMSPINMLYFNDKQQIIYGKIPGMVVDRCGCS

T2: activin A (Homo sapiens, UniProt P08476)
T2 sequence (P08476 311-426): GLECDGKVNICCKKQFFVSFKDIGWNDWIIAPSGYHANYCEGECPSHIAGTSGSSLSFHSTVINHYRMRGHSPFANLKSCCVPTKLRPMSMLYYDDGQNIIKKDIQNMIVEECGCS

T3: activin B (Homo sapiens, UniProt P09529)
T3 sequence (P09529 293-407): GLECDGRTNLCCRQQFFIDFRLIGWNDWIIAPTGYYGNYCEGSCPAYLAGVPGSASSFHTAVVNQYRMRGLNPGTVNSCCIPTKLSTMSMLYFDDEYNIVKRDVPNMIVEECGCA

T4: GDF8 (Homo sapiens, UniProt O14793)
T4 sequence (O14793 267-375): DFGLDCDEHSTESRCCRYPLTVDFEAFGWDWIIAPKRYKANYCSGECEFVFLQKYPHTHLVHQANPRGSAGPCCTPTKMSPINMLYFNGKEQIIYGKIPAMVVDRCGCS

B1: ActRIIB(L79D 20-134)-hFc: ActRIIB amino acids 20-134 with an L79D substitution fused to a human Fc domain (protein)
chain: GRGEAETRECIYYNANWELERTNQSGLERCEGEQDKRLHCYASWRNSSGTIELVKKGCWDDDFNCYDRQECVATEENPQVYFCCCEGNFCNERFTHLPEAGGPEVTYEPPPTAPTGGGTHTCPPCPAPELLGGPSVFLFPPKPKDTLMISRTPEVTCVVVDVSHEDPEVKFNWYVDGVEVHNAKTKPREEQYNSTYRVVSVLTVLHQDWLNGKEYKCKVSNKALPVPIEKTISKAKGQPREPQVYTLPPSREEMTKNQVSLTCLVKGFYPSDIAVEWESNGQPENNYKTTPPVLDSDGSFFLYSKLTVDKSRWQQGNVFSCSVMHEALHNHYTQKSLSLSPGK
B2: ActRIIB(P129S, P130R 20-134)-hFc: ActRIIB-Fc variant with P129S and P130R substitutions, residues 20-134 (protein)
chain: B1 chain with D60L, P110S, P111R
B3: ActRIIB(A24N 20-134)-hFc: ActRIIB-Fc variant with A24N substitution, residues 20-134 (protein)
chain: B1 chain with A5N, D60L
B4: ActRIIB(R64K 20-134)-hFc: ActRIIB-Fc variant with R64K substitution, residues 20-134 (protein)
chain: B1 chain with R45K, D60L
B5: ActRIIB(L79E 20-134)-hFc: alternative form with a glutamate rather than an aspartate at position 79 (protein)
chain: B1 chain with D60E
B6: ActRIIB(R64K 20-129)-hFc: ActRIIB-Fc variant with R64K substitution, residues 20-129 (protein)
chain: GRGEAETRECIYYNANWELERTNQSGLERCEGEQDKRLHCYASWKNSSGTIELVKKGCWLDDFNCYDRQECVATEENPQVYFCCCEGNFCNERFTHLPEAGGPEVTYEPPGGGTHTCPPCPAPELLGGPSVFLFPPKPKDTLMISRTPEVTCVVVDVSHEDPEVKFNWYVDGVEVHNAKTKPREEQYNSTYRVVSVLTVLHQDWLNGKEYKCKVSNKALPVPIEKTISKAKGQPREPQVYTLPPSREEMTKNQVSLTCLVKGFYPSDIAVEWESNGQPENNYKTTPPVLDSDGSFFLYSKLTVDKSRWQQGNVFSCSVMHEALHNHYTQKSLSLSPGK

Legend:
GDF11 [1] = target: T1, GDF11; test: Biacore ligand affinity of ActRIIB-hFc forms, steady-state affinity fit; format: binding; conditions: Table 12; Kd by steady-state affinity fit; read-out: GDF11 (Kd e−11)
Protocol: (§1) Affinities of several ligands for ActRIIB(25-131)-hFc and its full-length counterpart ActRIIB(20-134)-hFc were evaluated in vitro with a Biacore™ instrument, and the results are summarized in Table 8 below. Kd values were obtained by steady-state affinity fit due to very rapid association and dissociation of the complex, which prevented accurate determination of kon and koff. ActRIIB(25-131)-hFc bound, for example, activin A, activin B, and GDF11 with high affinity.
(§2) The affinity of ActRIIB variants and other ActRIIB-hFc proteins for several ligands was evaluated in vitro with a Biacore™ instrument. Kd values were obtained by steady-state affinity fit due to the very rapid association and dissociation of the complex, which prevented accurate determination of kon and koff.

activin A [2] = target: T2, activin A; test: as above; format: binding; conditions: Table 12; Kd by steady-state affinity fit; read-out: Activin A (Kd e−11)
Protocol: as §1, §2

activin B = target: T3, activin B; test: as above; format: binding; conditions: Table 12; Kd by steady-state affinity fit; read-out: Activin B (Kd e−11)
Protocol: as §1, §2

GDF11 [3] = target: T1, GDF11; test: A-204 reporter gene assay, pGL3(CAGA)12 luciferase; format: cell-based; conditions: for inhibition of GDF11 signaling: A-204 reporter gene assay; for GDF11 Inhibition Activity: Table 9, cell-based A-204 assay
Text: (§3) An A-204 reporter gene assay was used to evaluate the effects of ActRIIB-Fc proteins and ActRIIB variant Fc fusion polypeptides on signaling by GDF-11 and activin A. Cell line: human rhabdomyosarcoma (derived from muscle). Reporter vector: pGL3(CAGA)12 (described in Dennler et al, 1998, EMBO 17: 3091-3100). The CAGA12 motif is present in TGF-beta responsive genes (e.g., PAI-1 gene), so this vector is of general use for factors signaling through SMADs.
(§4) Day 1: Split A-204 cells into 48-well plate.
(§5) Day 2: A-204 cells transfected with 10 ug pGL3(CAGA)12 or pGL3(CAGA)12(10 ug)+pRLCMV (1 pg) and Fugene.
(§6) Day 3: Add factors (diluted into medium+0.1% BSA). Inhibitors need to be preincubated with factors for 1 hr before adding to cells. Six hrs later, cells were rinsed with PBS and lysed.
(§7) This is followed by a luciferase assay.
(§8) Activity of ActRIIB-Fc proteins and ActRIIB variant Fc fusion polypeptides was tested in a cell-based assay as described above. Some variants were tested in different C-terminal truncation constructs. As discussed above, truncations of five or fifteen amino acids caused reduction in activity. […]

activin A [4] = target: T2, activin A; test: A-204 reporter gene assay, pGL3(CAGA)12 luciferase; format: cell-based; conditions: for inhibition of activin A signaling: A-204 reporter gene assay; for Activin Inhibition Activity: Table 9, cell-based A-204 assay
Text: as §3, §4, §5, §6, §7, §8

GDF11 [5] = target: T1, GDF11; test: Biacore assay, ActRIIB-Fc captured with anti-hFc antibody, ligand injected (Example 8); format: binding; conditions: for Koff: GDF11, Table 10; for GDF11 binding: cell-free Biacore assay, Example 8
Protocol: (§9) Binding of certain ActRIIB-Fc proteins and ActRIIB variant Fc fusion polypeptides to ligands was tested in a Biacore™ assay.
(§10) The ActRIIB-Fc variants or wild-type protein were captured onto the system using an anti-hFc antibody. Ligands were injected and flowed over the captured receptor proteins.

GDF8 = target: T4, GDF8; test: as above; format: binding; conditions: for Koff: GDF8, Table 10; for myostatin (GDF8) binding: cell-free Biacore assay, Example 8
Protocol: as §9, §10

activin A [6] = target: T2, activin A; test: as above; format: binding; conditions: for KD (M) / Koff: Activin A, Table 10; for activin A binding: cell-free Biacore assay, Example 8
Protocol: as §9, §10

Molecule	Kd (GDF11 [1]) [nM]	Kd (activin A [2]) [nM]	Kd (activin B) [nM]	inhibition of GDF11 signaling (GDF11 [3])	GDF11 Inhibition Activity (GDF11 [3])	inhibition of activin A signaling (activin A [4])	Activin Inhibition Activity (activin A [4])	Koff (GDF11 [5]) [s⁻¹]	GDF11 binding (GDF11 [5])	Koff (GDF8) [s⁻¹]	myostatin (GDF8) binding (GDF8)	KD (M) (activin A [6])	activin A binding (activin A [6])	Koff (activin A [6]) [s⁻¹]
B1	0.123	13.5	0.788	almost wild-type inhibition of GDF11	+++ (Good (wild-type) activity (roughly 1 × 10^−8 KI))	substantial loss of activin A inhibition	+ (Poor activity (roughly 1 × 10^−6 KI))	0.000439	retains myostatin and GDF11 binding	0.00083	retains myostatin and GDF11 binding	Low binding	markedly decreased (non-quantifiable) binding to activin A	–
B2	–	–	–	–	–	–	–	–	–	0.00018	–	–	–	0.000417
B3	–	–	–	equivalent to the wild-type molecule	+++ (Good (wild-type) activity (roughly 1 × 10^−8 KI))	equivalent to the wild-type molecule	+++ (Good (wild-type) activity (roughly 1 × 10^−8 KI))	6.35e-05	retains ligand-binding activity that is similar to that of the ActRIIB(20-134)-hFc molecule	–	–	–	retains ligand-binding activity that is similar to that of the ActRIIB(20-134)-hFc molecule	0.000346
B4	–	–	–	–	+++ (Good (wild-type) activity (roughly 1 × 10^−8 KI))	–	+++ (Good (wild-type) activity (roughly 1 × 10^−8 KI))	2.41e-05	–	4.71e-05	–	–	–	0.000325
B5	–	–	–	almost wild-type inhibition of GDF11	+++ (Good (wild-type) activity (roughly 1 × 10^−8 KI))	substantial loss of activin A inhibition	+ (Poor activity (roughly 1 × 10^−6 KI))	0.000274	retains myostatin and GDF11 binding	0.0009	retains myostatin and GDF11 binding	Low binding	markedly decreased (non-quantifiable) binding to activin A	–
B6	–	–	–	–	+++ (Good (wild-type) activity (roughly 1 × 10^−8 KI))	–	+++ (Good (wild-type) activity (roughly 1 × 10^−8 KI))	–	–	0.000209	–	–	–	0.000628
